Test results published in patent publication US20250188184A1.

Molecular target: CD3 (target of the Pool 1 CD3.23 screen)
Experiment: Octet, crude lysate

Chain of CD3 (target of the Pool 1 CD3.23 screen) (P07766 23-126): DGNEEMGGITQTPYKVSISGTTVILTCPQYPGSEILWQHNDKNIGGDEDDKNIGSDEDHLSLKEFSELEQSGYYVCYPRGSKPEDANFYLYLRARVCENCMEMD

| Binder | Kd [nM] |
| --- | --- |
| CD3.104 (AC3433) (bispecific antibody, V domains shown) VH: EVQLLESGGGIVQPGGSLKLSCAASGFTFNTYAMNWVRQAPGKGLEWVARIRSKYNNYATYYADSVKDRFTISRDDSKNTVYLQMNNLKTEDTAVYYCVRHENFGNSYVSWFAHWGQGTLVTVSS VL: ELVVTQEPSLTVSPGGTVTLTCRSSNGAVTSSNYANWVQQKPGQAPRGLIGGTNKRAPGTPARFSGSLQGGKAALTLSGVQPEDEAVYYCALWYPNLWVFGGGTKLTVL | 4.6 |
| CD3.106 (AC3435) (bispecific antibody, V domains shown) VH: EVQLLESGGGIVQPGGSLKLSCAASGFTFNTYAMNWVRQAPGKGLEWVARIRSKYNNYATYYADSVKDRFTISRDDSKNTVYLQMNNLKTEDTAVYYCVRHENFGNSYVSWFAHWGQGTLVTVSS VL: ELVVTQEPSLTVSPGGTVTLTCRSSNGAVTSSNYANWVQQKPGQAPRGLIGGTNKRAPGTPARFSGSLDGGKAALTLSGVQPEDEAVYYCALWYPNLWVFGGGTKLTVL | 6.1 |
| CD3.108 (AC3437) (bispecific antibody, V domains shown) VH: EVQLLESGGGIVQPGGSLKLSCAASGFTFNTYAMNWVRQAPGKGLEWVARIRSKYNNYATYYADSVKDRFTISRDDSKNTVYLQMNNLKTEDTAVYYCVRHENFGNSYVSWFAHWGQGTLVTVSS VL: ELVVTQEPSLTVSPGGTVTLTCRSSNGAVTSSNYANWVQQKPGQAPRGLIGGTNKRAPGTPARFSGSKLGGKAALTLSGVQPEDEAVYYCALWYPNLWVFGGGTKLTVL | 3.2 |
| CD3.110 (AC3439) (bispecific antibody, V domains shown) VH: EVQLLESGGGIVQPGGSLKLSCAASGFTFNTYAMNWVRQAPGKGLEWVARIRSKYNNYATYYADSVKDRFTISRDDSKNTVYLQMNNLKTEDTAVYYCVRHENFGNSYVSWFAHWGQGTLVTVSS VL: ELVVTQEPSLTVSPGGTVTLTCRSSNGAVTSSNYANWVQQKPGQAPRGLIGGTNKRAPGTPARFSGSTLGGKAALTLSGVQPEDEAVYYCALWYPNLWVFGGGTKLTVL | 8.9 |
| CD3.105 (AC3434) (bispecific antibody, V domains shown) VH: EVQLLESGGGIVQPGGSLKLSCAASGFTFNTYAMNWVRQAPGKGLEWVARIRSKYNNYATYYADSVKDRFTISRDDSKNTVYLQMNNLKTEDTAVYYCVRHENFGNSYVSWFAHWGQGTLVTVSS VL: ELVVTQEPSLTVSPGGTVTLTCRSSNGAVTSSNYANWVQQKPGQAPRGLIGGTNKRAPGTPARFSGSLLEGKAALTLSGVQPEDEAVYYCALWYPNLWVFGGGTKLTVL | 4.9 |
| CD3.107 (AC3436) (bispecific antibody, V domains shown) VH: EVQLLESGGGIVQPGGSLKLSCAASGFTFNTYAMNWVRQAPGKGLEWVARIRSKYNNYATYYADSVKDRFTISRDDSKNTVYLQMNNLKTEDTAVYYCVRHENFGNSYVSWFAHWGQGTLVTVSS VL: ELVVTQEPSLTVSPGGTVTLTCRSSNGAVTSSNYANWVQQKPGQAPRGLIGGTNKRAPGTPARFSGSSLGGKAALTLSGVQPEDEAVYYCALWYPNLWVFGGGTKLTVL | 7.3 |
| CD3.109 (AC3438) (bispecific antibody, V domains shown) VH: EVQLLESGGGIVQPGGSLKLSCAASGFTFNTYAMNWVRQAPGKGLEWVARIRSKYNNYATYYADSVKDRFTISRDDSKNTVYLQMNNLKTEDTAVYYCVRHENFGNSYVSWFAHWGQGTLVTVSS VL: ELVVTQEPSLTVSPGGTVTLTCRSSNGAVTSSNYANWVQQKPGQAPRGLIGGTNKRAPGTPARFSGSNLGGKAALTLSGVQPEDEAVYYCALWYPNLWVFGGGTKLTVL | 8.3 |
